Source: patent publication US20250304697A1 (ONECHAIN IMNUNOTHERAPEUTICS S L, published 2025)
Blank lines part the entries; values can stand above or below the molecule they belong to.

Legend:
[1] = biological target: mCAR-CD1a (murine CAR-CD1a, scFv derived from the NA1/34.HLK clone) expressed on transduced T cells; test: FACS of mCD1a-CAR-T cells incubated with rCD1a (25 nM by the legend paragraph 24, 200 nM by Example 11 paragraph 349), detection with anti-HIS-APC; UT cells in the same gate 0,2% [cont.) B]
[2] = biological target: T1, human recombinant protein extracellular domain of CD1a (rCD1a), produced with a 6xHis tag as a dimer with … (human, UniProt P06126 17-300; P61769 21-119); test: SPR, Biacore T-200, rCD1a immobilized on CM5 chip, soluble scFv, 1:1 binding fit, 298 K
T1 construct: Used soluble in flow cytometry on CAR-T cells (detected with anti-HIS-APC) and immobilized on CM5 chips in SPR; also called rCD1a-HIS; recombinant protein CD1a; not shown: 6xHis tag

[3] = biological target: T1, human recombinant protein extracellular …; test: SPR, ratio of KD against mscFv-CD1a

% of rCD1a positive bound cells [1]: 23.3%
Molecule: human recombinant protein extracellular domain of CD1a (rCD1a), produced with a 6xHis tag as a dimer with b2-microglobulin (hB2M) (from UniProt P06126 17-300; P61769 21-119)

Kd [2]: 21 nM
koff [2]: 0.0012 s⁻¹
kon [2]: 56300 M⁻¹ s⁻¹
fold higher affinity than the murine scFv (mscFv-CD1a) [3]: 2.4 fold
B1: h(2)scFv-CD1a: recombinant humanized (H2 version) scFv anti-CD1a with a 6xHis tag, from XtenCHO cells (scFv)
scFv: QVQLQQSGAEVKKPGASVKVSCKASGYAFSTYTMHWVRQAPGQGLEWMGYINPNSASTSYAQKFQGRVTMTADKSTNTAYMELSSLRSEDTAVYYCARGFYTMDYWGQGTLVTVSSGGGGSGGGGSGGGGSGGGGSRDIQMTQSPSSLSASVGDRVTITCQASQDINKYIAWYQFKPGKGPRLLIHYTSTLEPAIPSRFSGSGSGREYTFTISSLQPEDIATYYCLHYDNLPWTFGGGTKVEIKRA
notes: also called hscFv-CD1a; humanized2_scFv-anti-CD1a; not shown: 6xHis tag

Kd [2]: 50 nM
koff [2]: 0.00121 s⁻¹
kon [2]: 24600 M⁻¹ s⁻¹
B2: mscFv-CD1a: recombinant murine scFv anti-CD1a with a 6xHis tag, from XtenCHO cells (scFv)
scFv: QVQLQQSGAELARPGASVKMSCKASGYAFSTYTMHWVKQRPRQGLEWIGYINPNSASTSYNENFKDKATLTADKSSNTAYMHLSSLTSEDSAVYYCARGFYTMDYWGQGTSVTVSSGGGGSGGGGSGGGGSGGGGSRDIQMTQSPSSLSASLGGKVTITCQASQDINKYIAWYQFKPGKGPRLLIHYTSTLQPAIPSRFSGSGSGREYSFSISNLEPEDIATYYCLHYDNLPWTFGGGTKLEIKRAHHHHHH
